According to patent publication US20220348651A1 (Novartis, published 2022):
Where a chain is given by its changes, count along the chain named.

T1: mouse ENTPD2 expressed on cells (mouse, UniProt O55026 1-495)
T1 construct: also called NIH3T3-mouse ENTPD2 engineered cell line; mouse ENTPD2-engineered 4T1 clone 45
T1 sequence: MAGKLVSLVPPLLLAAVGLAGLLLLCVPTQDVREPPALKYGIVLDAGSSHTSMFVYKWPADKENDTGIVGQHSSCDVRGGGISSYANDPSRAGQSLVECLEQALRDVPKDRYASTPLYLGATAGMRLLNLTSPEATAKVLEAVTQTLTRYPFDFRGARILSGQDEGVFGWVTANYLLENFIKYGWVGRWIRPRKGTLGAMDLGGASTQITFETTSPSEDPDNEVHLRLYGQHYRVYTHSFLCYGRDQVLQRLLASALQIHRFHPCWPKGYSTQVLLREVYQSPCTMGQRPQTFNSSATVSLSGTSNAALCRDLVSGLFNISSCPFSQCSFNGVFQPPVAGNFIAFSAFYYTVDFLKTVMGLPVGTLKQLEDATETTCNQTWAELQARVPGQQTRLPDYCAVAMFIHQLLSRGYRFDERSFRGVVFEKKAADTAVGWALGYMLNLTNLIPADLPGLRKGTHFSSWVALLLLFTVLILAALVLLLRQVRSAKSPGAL

T2: human ENTPD2 expressed on cells (human, UniProt Q9Y5L3 1-495)
T2 sequence: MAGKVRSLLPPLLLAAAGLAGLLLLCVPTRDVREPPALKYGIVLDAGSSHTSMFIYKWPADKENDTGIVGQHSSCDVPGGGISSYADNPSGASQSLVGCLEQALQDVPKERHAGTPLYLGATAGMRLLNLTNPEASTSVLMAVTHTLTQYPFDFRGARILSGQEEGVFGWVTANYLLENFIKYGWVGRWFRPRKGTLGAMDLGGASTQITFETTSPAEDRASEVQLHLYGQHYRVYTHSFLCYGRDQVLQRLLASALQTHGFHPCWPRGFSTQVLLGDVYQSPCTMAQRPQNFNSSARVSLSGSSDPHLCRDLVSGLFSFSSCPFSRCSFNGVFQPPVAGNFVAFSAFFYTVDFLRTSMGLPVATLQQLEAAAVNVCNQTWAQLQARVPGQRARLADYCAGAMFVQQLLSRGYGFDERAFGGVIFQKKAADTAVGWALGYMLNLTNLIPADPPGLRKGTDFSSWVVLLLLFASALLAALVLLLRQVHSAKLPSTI

T3: cyno ENTPD2 expressed on NIH/3T3 cells (cynomolgus macaque, UniProt Q9Y5L3 1-495 (human entry))
T3 chain: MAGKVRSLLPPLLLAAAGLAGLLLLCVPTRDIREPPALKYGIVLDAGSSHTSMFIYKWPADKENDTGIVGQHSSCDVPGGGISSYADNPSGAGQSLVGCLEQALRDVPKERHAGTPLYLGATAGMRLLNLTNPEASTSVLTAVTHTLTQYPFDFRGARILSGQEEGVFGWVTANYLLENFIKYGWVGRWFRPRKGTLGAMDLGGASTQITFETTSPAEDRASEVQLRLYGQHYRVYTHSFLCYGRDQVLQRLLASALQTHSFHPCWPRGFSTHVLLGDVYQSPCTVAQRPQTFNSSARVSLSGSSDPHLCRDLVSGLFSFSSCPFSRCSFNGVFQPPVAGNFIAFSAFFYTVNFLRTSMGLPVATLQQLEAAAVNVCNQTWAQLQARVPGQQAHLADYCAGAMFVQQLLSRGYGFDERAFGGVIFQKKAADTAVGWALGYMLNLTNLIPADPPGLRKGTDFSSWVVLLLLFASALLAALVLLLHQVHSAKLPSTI

T4: recombinant human ENTPD2 (residues 29-462, Y350A mutant) used in crystallographic studies (human, UniProt Q9Y5L3 29-462, N-linked glycosylation observed at Asn129, Asn294, Asn378 and Asn443)
T4 construct: also called hENTPD2 Y350A; human ENTPD2 (Y350A mutant) ectodomain
T4 sequence: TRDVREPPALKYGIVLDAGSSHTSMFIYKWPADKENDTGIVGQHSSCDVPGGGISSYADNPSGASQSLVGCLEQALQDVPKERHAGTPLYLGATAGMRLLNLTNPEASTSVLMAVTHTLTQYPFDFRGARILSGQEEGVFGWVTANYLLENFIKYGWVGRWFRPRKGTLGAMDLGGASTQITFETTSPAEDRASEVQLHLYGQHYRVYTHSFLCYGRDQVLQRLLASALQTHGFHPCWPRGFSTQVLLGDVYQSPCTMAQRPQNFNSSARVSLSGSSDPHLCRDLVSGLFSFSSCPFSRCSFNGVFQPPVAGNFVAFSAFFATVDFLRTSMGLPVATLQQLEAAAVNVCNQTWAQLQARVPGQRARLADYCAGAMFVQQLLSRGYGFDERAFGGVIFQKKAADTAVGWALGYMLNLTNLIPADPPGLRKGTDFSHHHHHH

B1: ANTI-mouse ENTPD2 MAB13 (antibody, mouse IgG2a, kappa, V domains shown)
VH: QVQLVQSGAELKQPGQSVKISCKASGYTFTHYGMNWVKQAPGQGLKWMGWINTDTGNPTYADDFKGRFVFSLDTSVSTAYLQISNLKNEDTATYYCVRYGTLYSGYGFFFDSWGQGTLVTVSS
VL: DIMMTQSPSSLSVSAGEKATITCKSSQSLFNSNTNKNYLNWYLQKPGQSPKLLFYYASTRHTGVPDRFIGSGSGTDFTLTITSVQDEDLADYYCQQWYSYPWTFGPGTKLEIKR
notes: mouse ENTPD2 selective antibody; also called Anti-ENTPD2 mAb13
B2: ANTI-mouse ENTPD2 MAB14 (antibody, mouse IgG2a, kappa, V domains shown)
VH: B1 VH with T30W
VL: B1 VL
B3: ANTI-mouse ENTPD2 MAB15 (antibody, mouse IgG2a, kappa, V domains shown)
VH: B1 VH with T30H
VL: B1 VL
B4: ANTI-HUMAN ENTPD2 MAB11 (antibody, human IgG1, kappa, V domains shown)
VH: EVQLLESGGGLVQSGGSLRLSCAASGFTFSSYAMSWVRQAPGKGLEWVSVISGSGGSTYYADSVKGRFTISRDNSKNTLYLQMNSLRAEDTAVYYCARGDDYGDDYYYYGMDVWGQGTTVTVSS
VL: not shown
B5: ANTI-HUMAN ENTPD2 MAB17 (antibody, human IgG1, kappa, V domains shown)
VH: EVQLQQFGAELVKPGASVKISCKASGYTFTDYNMDWVKQSHGKSLEWIGDINPKYDISTYNQQFKGKATLTVDKSSSTAYMELRSLTSEDTAVYYCARRGFFLYYGINYYYFDVWGAGTTVTVSS
VL: QIVLTQSPAIMSASLGEEITLTCSASSSVSYIHWYQQKSGTSPTLLIYSTSNLASGVPSRFSGSGSGTFYSLTISSVEAEDAADYYCHQWSSYPWTFGGGTKLEIKR
B6: ANTI-HUMAN ENTPD2 MAB19 (antibody, human IgG1, kappa, V domains shown)
VH: B5 VH with A16T, K54N, S58T, Q63R, L103P, I107N, N108S
VL: B5 VL with A9T, I32M, T44K, S92N
B7: ANTI-HUMAN ENTPD2 FAB23 (Fab, V domains shown)
VH: B5 VH
VL: B5 VL
modifications: N-terminal residue observed and modeled as pyroglutamate in the crystal structure
notes: Fab with the variable regions of mAb17; also called anti-hENTPD2 FAb23; anti-human ENTPD2 MAB17 Fab
B8: ANTI-HUMAN ENTPD2 MAB21 (antibody, human IgG1, kappa, V domains shown)
VH: EVQLQQSGPELVKPGASVKISCKTSGYTFTEYTMHWVKQSHGKSLEWIGGINPNNGITTYNQKFKGKATLTVDKSSSTAYMDLRSLTSEGSAVYYCARRGFPIYYYGTSLYYFDYWGQGTTLTVSS
VL: B5 VL with I32M, K38R, T44K, S49T
B9: ANTI-HUMAN ENTPD2 MAB20 (antibody, human IgG1, kappa, V domains shown)
VH: B5 VH with K54N, S58T, T59S, Q63K, I107S, N108S
VL: B5 VL with I32M, T44K
B10: ANTI-HUMAN ENTPD2 MAB16 (antibody, human IgG1, kappa, V domains shown)
VH: DIQLQESGPGLVKPSQSLSLTCSVTGYSITSGYYWNWIRQFPGNKLEWMGYISYDGDNNYNPSLKNRISITRDTSKNQFFLKLSSVTTEDTATYYCAGGYYRYGLSYYYVMDYWGQGTSVTVSS
VL: DTVLTQSPASLAVSLGQRATISCKASQSVDYDGNSYMNWYQQKPGQPPKLLIYAASNLESGIPARFSGSGSGTDFTLNIHPVEEEDAATYYCQQSNEDPPTFGGGTKLEIKR
B11: ANTI-HUMAN ENTPD2 FAB22 (Fab, V domains shown)
VH: B10 VH with D1E, I2V, Q3K, Q5E, E6Q, G50S, S124A
VL: B10 VL with T2I, V3K, L4M, I110L
notes: Fab with the CDRs of mAb16; human CH1 and kappa constant regions; also called anti-hENTPD2 FAb22
B12: ANTI-HUMAN ENTPD2 MAB18 (antibody, human IgG1, kappa, V domains shown)
VH: DIQLQESGPGLVKPSQSLSLTCSVTGYSITSGYYWNWIRQFPGNKLEWMGYISYDGDNNYNPSLKNRISITRDTSKNQFFLKLSSVTTEDTATYYCAGGYYRYGLGSYSGSYYYVMDYWGQGTSVTVSS
VL: B10 VL
B13: ANTI-HUMAN ENTPD2 MAB12 (antibody, human IgG1, kappa, V domains shown)
VH: EVLLVESGGGLVQPGGSLRLSCAASGFTFNSCSMNWVRQAPGKGLEWVSYISSSSSTIYYADSVKGRFTISRDNAKNSLYLQMNSLKDEDTAVYYCARDQGNWNYDDYYNGLDVWGQGTTVTVSS
VL: not shown

Experiments:
[1] = biological target: T1, mouse ENTPD2 expressed on cells; test: flow cytometry (FACS)
[2] = biological target: T1, mouse ENTPD2 expressed on cells; test: cell-based or functional assay
[3] = biological target: T2, human ENTPD2 expressed on cells; test: cell-based or functional assay
[4] = biological target: recombinant human ENTPD2 extracellular domain (residues 29-462) with C-terminal Avi-His6 tag (human, UniProt Q9Y5L3 29-462, biotinylated on the AviTag in the epitope binning assay); test: cell-based or functional assay
[5] = biological target: T3, cyno ENTPD2 expressed on NIH/3T3 cells; test: cell-based or functional assay
[6] = biological target: T4, recombinant human ENTPD2 (residues …); test: X-ray crystal structure of the complex
Procedure: Structure determination by molecular replacement was performed using the previously determined human ENTPD2 coordinates and Fab coordinates from PDB code 3QRG.

Binder | % inhibition, Human ENTPD2 NIH/3T3 Assay [3] [%] | IC50, Human ENTPD2 NIH/3T3 Assay [3] [nM] | IC50, ENTPD2 Biochemical Assay at 1 uM ATP [4] [nM] | further results
B1 |  |  |  | EC50 [1]: 3 to 4 nM; ENTPD2 Functional Assay IC50 (mouse ENTPD2 NIH/3T3 cells) [2]: 2.8 nM
B2 |  |  |  | ENTPD2 Functional Assay IC50 (mouse ENTPD2 NIH/3T3 cells) [2]: 4.6 nM
B3 |  |  |  | ENTPD2 Functional Assay IC50 (mouse ENTPD2 NIH/3T3 cells) [2]: 5.9 nM
B4 | 55 | 1.5 |  | 
B5 | 98 | 0.6 | 0.27 | % inhibition, RKO Assay [3]: 96%; IC50, RKO Assay [3]: 0.5 nM; % inhibition, Cyno ENTPD2 NIH/3T3 Assay [5]: 91%; IC50, Cyno ENTPD2 NIH/3T3 Assay [5]: 1 nM
B6 |  |  | 4.09 | 
B7 |  |  |  | buried solvent-accessible surface [6]: ~17500 Å2
B8 |  |  | 0.87 | 
B9 |  |  | 17.5 | 
B10 | 30 | > 133 | 77.3 | % inhibition, Cyno ENTPD2 NIH/3T3 Assay [5]: 5%; IC50, Cyno ENTPD2 NIH/3T3 Assay [5]: > 133 nM
B11 |  |  |  | buried solvent-accessible surface [6]: ~16700 Å2
B12 | 88 | 0.4 |  | % inhibition, Cyno ENTPD2 NIH/3T3 Assay [5]: 68%; IC50, Cyno ENTPD2 NIH/3T3 Assay [5]: 20 nM
B13 | 68 | 26.6 |  | 
